Literature values in paper PMC7900953, “Location of a single histidine within peptide carriers increases mRNA delivery” (The Journal of Gene Medicine, 2020).
Where no end group is shown, it is not given here.

System: human cells
Settings: cited from earlier work

H3k4b (KHHHKHHHKHHHKHHHK; also: four-branched lysine core)
Cytotoxicity to human cells: no observed cytotoxicity to human cells
